Source: PMC8207647

What was measured:
Assay in all cases: purified protein
Settings in all cases: O2 co-substrate, pH 7.5 sodium phosphate 50 mM, 35 °C
O=Cc1ccc(C=O)o1 = system: O=Cc1ccc(C=O)o1
O=Cc1ccc(CO)o1 = system: O=Cc1ccc(CO)o1
O=C(O)c1ccc(CO)o1 = system: O=C(O)c1ccc(CO)o1
COc1ccc(CO)cc1OC = system: COc1ccc(CO)cc1OC

Which Km (O=Cc1ccc(C=O)o1) does the source give for “FoxAAO (Fusarium oxysporum f. sp. lycopersici 4287)” here?
The Km was 3.7 ± 1.0 mM.

And the kcat (O=Cc1ccc(C=O)o1)?
The kcat was 1.4 ± 0.13 s⁻¹.

And the kcat/Km (O=Cc1ccc(C=O)o1)?
Its kcat/Km is 380 M⁻¹ s⁻¹.

What about the Km (O=Cc1ccc(CO)o1) of the same substance?
The Km was 17 ± 4.9 mM.

And the Km (O=C(O)c1ccc(CO)o1)?
Its Km is 3.1 ± 0.31 mM.

And the kcat (O=C(O)c1ccc(CO)o1)?
The kcat was 5.2 ± 0.14 s⁻¹.

And the kcat/Km (O=C(O)c1ccc(CO)o1)?
Its kcat/Km is 1700 M⁻¹ s⁻¹.

And the Km (COc1ccc(CO)cc1OC)?
Its Km is 3.0 ± 0.24 mM.

What about the kcat (COc1ccc(CO)cc1OC) of the same substance?
Its kcat is 25 ± 1.2 s⁻¹.

And the kcat/Km (COc1ccc(CO)cc1OC)?
Its kcat/Km is 8300 M⁻¹ s⁻¹.
